From the Human Domainome abundance scans (Beltran et al. 2025)
± gives the uncertainty stated by the source.

B1: Tyrosine-protein kinase BTK, residues 215 to 273; numbered along this chain, Q06187 (parent)
chain: ELKKVVALYDYMPMNANDLQLRKGDEYFILEESNLPWWRARDKNGQEGYIPSNYVTEAE
B2: Tripartite motif-containing protein 49C, residues 87 to 133; numbered along this chain, P0CI26 (parent)
chain: SSEEQMCGTHRETKKIFCEVDRSLLCLLCSSSQEHRYHRHRPIEWAA

Variants of: B1
Assay: abundance fitness (aPCA) (normalised: wild type 0, dead -1); higher = more abundant; growth selection in yeast, the domain comes from the species named
Conditions: Homo sapiens

Abundance fitness of substitutions, site by site:
E1: L -0.074 ± 0.067; I -0.106 ± 0.46; C -0.252 ± 0.16; N -0.012 ± 0.14; A -0.172 ± 0.054; P -0.305 ± 0.16; D -0.103 ± 0.075; F -0.094 ± 0.2; R -0.15 ± 0.099; T -0.288 ± 0.1; H -0.174 ± 0.11; K -0.035 ± 0.087; Q -0.121 ± 0.12

Variants of: B2
Assay: as above
Conditions: Homo sapiens

Abundance fitness: each site, then its substitutions
S32: P -0.442 ± 0.14; W -0.464 ± 0.13; D -0.041 ± 0.12; Q -0.116 ± 0.11; Y -0.224 ± 0.15; H -0.483 ± 0.22; M -0.141 ± 0.11; C -0.414 ± 0.16; A -0.222 ± 0.095; R 0.017 ± 0.096; T -0.278 ± 0.12; I -0.947 ± 0.21; V -0.301 ± 0.11; E -0.364 ± 0.15; F -0.465 ± 0.14; L -0.313 ± 0.1; N -0.134 ± 0.25
Q33: H -0.197 ± 0.19; G -0.151 ± 0.082; T -0.116 ± 0.11; W -0.352 ± 0.096; I 0.694 ± 0.3; M -0.257 ± 0.13; L -0.012 ± 0.094; E 0.081 ± 0.12; P 0.391 ± 0.13; D -0.264 ± 0.23; V 0.01 ± 0.11; Y 0.159 ± 0.14; F -0.237 ± 0.16
L28: R -0.068 ± 0.089; P -0.095 ± 0.14; V 0.186 ± 0.094; H -0.246 ± 0.2; Q 0.274 ± 0.13; E 0.189 ± 0.12; S 0.12 ± 0.092; W -0.368 ± 0.093; N 0.075 ± 0.12; F -0.422 ± 0.15; K 0.003 ± 0.14; M 0.024 ± 0.11; Y 0.056 ± 0.11; T 0.204 ± 0.12
P42: N -0.103 ± 0.083; W -0.671 ± 0.1; V -0.393 ± 0.099; M -0.366 ± 0.11; Q -0.081 ± 0.1; L -0.324 ± 0.073; C -0.049 ± 0.089; H -0.264 ± 0.082; Y -0.26 ± 0.083; T -0.065 ± 0.074; K 0.11 ± 0.12; A 0.022 ± 0.078; F -0.289 ± 0.095; S -0.122 ± 0.076; R -0.221 ± 0.078; I -0.377 ± 0.09; G -0.007 ± 0.086
E34: Q -0.41 ± 0.14; W -0.928 ± 0.15; S -0.281 ± 0.1; R -0.557 ± 0.091; I -0.818 ± 0.19; T -0.349 ± 0.1; D 0.041 ± 0.12; K -0.246 ± 0.14; V -0.492 ± 0.09; G -0.492 ± 0.095; M -0.496 ± 0.12; F -0.748 ± 0.17; N -0.417 ± 0.15; C -0.514 ± 0.17; L -0.659 ± 0.1; H -0.046 ± 0.17; P -0.834 ± 0.15
H35: M -0.916 ± 0.17; E -0.997 ± 0.26; V -0.892 ± 0.12; G -0.769 ± 0.094; T -0.929 ± 0.16; P -0.676 ± 0.14; F -0.75 ± 0.16; W -0.846 ± 0.14; C -0.636 ± 0.12; R -0.799 ± 0.099; K -0.929 ± 0.21; Y -1.06 ± 0.16; L -1.08 ± 0.14; Q -1.09 ± 0.22; I -0.882 ± 0.19; D -0.821 ± 0.17
R41: F -0.29 ± 0.19; A -0.084 ± 0.12; S 0.011 ± 0.12; E -0.197 ± 0.14; M -0.39 ± 0.17; Q 0.09 ± 0.15; D 0.496 ± 0.39; W -0.413 ± 0.2; Y -0.659 ± 0.22; T -0.292 ± 0.16; V -0.607 ± 0.14; P -0.364 ± 0.37; K -0.402 ± 0.47; C -0.609 ± 0.17; G -0.34 ± 0.12
R39: A -0.103 ± 0.097; D 0.257 ± 0.12; C -0.375 ± 0.11; V -0.092 ± 0.076; E 0.203 ± 0.093; I 0.162 ± 0.14; S 0.083 ± 0.086; Q 0.045 ± 0.1; W -0.314 ± 0.084; N 0.363 ± 0.12; L -0.172 ± 0.085; F -0.356 ± 0.11; G -0.253 ± 0.072; M -0.155 ± 0.1; H -0.131 ± 0.15; T 0.02 ± 0.091; P -0.246 ± 0.12; Y -0.328 ± 0.22
Y37: Q 0.155 ± 0.088; S 0.171 ± 0.071; D 0.176 ± 0.11; W -0.218 ± 0.12; V -0.243 ± 0.091; L 0.127 ± 0.07; E 0.178 ± 0.15; A 0.181 ± 0.087; K 0.058 ± 0.1; H 0.181 ± 0.08; F -0.059 ± 0.074; T 0.051 ± 0.074; I -0.386 ± 0.1; P -0.273 ± 0.076; C -0.032 ± 0.09; N 0.226 ± 0.083; R -0.109 ± 0.075
C29: G -0.716 ± 0.082; L -0.977 ± 0.17; W -0.815 ± 0.17; M -0.935 ± 0.18; H -0.418 ± 0.15; V -0.959 ± 0.12; E -0.63 ± 0.12; I -1.2 ± 0.36; F -1.08 ± 0.2; K -0.776 ± 0.18; N -0.816 ± 0.16; P -0.715 ± 0.19; S -1.06 ± 0.14; T -0.861 ± 0.17; A -0.675 ± 0.092
S30: Q -0.665 ± 0.14; F -0.776 ± 0.16; P -0.622 ± 0.12; H -0.528 ± 0.25; D -0.288 ± 0.18; I -0.435 ± 0.21; N -0.555 ± 0.31; R -0.697 ± 0.1; T -0.19 ± 0.12; Y -0.407 ± 0.2; W -0.615 ± 0.18; E -0.165 ± 0.12; K -0.72 ± 0.19; V -0.257 ± 0.093; M -0.176 ± 0.18; G -0.319 ± 0.097; A 0.203 ± 0.1
H38: S -0.691 ± 0.097; C -0.836 ± 0.24; W -0.708 ± 0.1; Q -0.562 ± 0.12; G -0.84 ± 0.09; N -0.781 ± 0.25; Y -0.711 ± 0.14; V -0.851 ± 0.088; K -0.607 ± 0.12; E -0.33 ± 0.092; D -0.521 ± 0.14; T -0.599 ± 0.14; M -0.717 ± 0.13; I -0.892 ± 0.26; A -0.573 ± 0.085; F -0.271 ± 0.2; R -0.591 ± 0.097
E44: C -0.525 ± 0.11; T -0.2 ± 0.1; A -0.411 ± 0.099; N -0.065 ± 0.12; R -0.507 ± 0.079; H -0.738 ± 0.15; I -0.359 ± 0.16; F -0.82 ± 0.13; Q -0.489 ± 0.16; Y -0.652 ± 0.15; S -0.089 ± 0.077; K -0.298 ± 0.11; V -0.603 ± 0.087; L -0.52 ± 0.085; P -0.449 ± 0.11; G -0.181 ± 0.08; W -0.598 ± 0.11; M -0.488 ± 0.11
A47: N -0.007 ± 0.28; D 0.438 ± 0.22; S -0.565 ± 0.16; V 0.142 ± 0.16; G -0.078 ± 0.16; E -0.375 ± 0.19; P 0.019 ± 0.13; M -0.025 ± 0.18; R 0.04 ± 0.14; L -0.493 ± 0.15; H -0.036 ± 0.36; C -0.591 ± 0.29; W -0.144 ± 0.33
R36: M -0.301 ± 0.12; V -0.213 ± 0.084; N -0.028 ± 0.11; H 0.064 ± 0.15; P -0.535 ± 0.16; T 0.001 ± 0.11; Q -0.199 ± 0.12; K -0.15 ± 0.15; S -0.197 ± 0.091; I -0.217 ± 0.14; D 0.001 ± 0.14; W -0.66 ± 0.11; F -0.607 ± 0.14; Y -0.701 ± 0.18; G -0.454 ± 0.074; L -0.152 ± 0.087; A 0.037 ± 0.088; E -0.308 ± 0.11
W45: T 0.345 ± 0.1; Y 0.256 ± 0.095; S 0.292 ± 0.077; R 0.111 ± 0.08; L 0.122 ± 0.078; M 0.255 ± 0.12; Q 0.224 ± 0.094; H 0.361 ± 0.12; P 0.346 ± 0.098; K 0.518 ± 0.12; A 0.282 ± 0.094; C 0.18 ± 0.12; D 0.479 ± 0.087; F 0.153 ± 0.089; G 0.236 ± 0.078; I 0.12 ± 0.1
H40: W -0.608 ± 0.11; N -1.27 ± 0.4; M -0.633 ± 0.18; L -0.551 ± 0.09; S -0.298 ± 0.094; C -0.623 ± 0.15; Q -0.129 ± 0.12; D -0.083 ± 0.19; T -0.849 ± 0.14; P -0.767 ± 0.14; R -0.563 ± 0.081; F -0.709 ± 0.24; I -0.893 ± 0.25; Y -0.888 ± 0.16; V -0.439 ± 0.098; K -0.908 ± 0.18; G -0.468 ± 0.078
I43: S -0.011 ± 0.27; E 0.24 ± 0.22; R -0.385 ± 0.18; M -0.37 ± 0.2; A 0.405 ± 0.14; P -0.524 ± 0.49; T -0.54 ± 0.4; Y 0.335 ± 0.29; V 0.023 ± 0.2; K 0.352 ± 0.27; F 0.594 ± 0.35; G -0.215 ± 0.15; W -0.395 ± 0.23
A46: Q -0.085 ± 0.14; K -0.368 ± 0.16; D 0.09 ± 0.1; S 0.056 ± 0.089; V -0.203 ± 0.085; P 0.2 ± 0.1; G 0.056 ± 0.079; T 0.194 ± 0.12; N -0.124 ± 0.12; R -0.249 ± 0.083; L -0.039 ± 0.089; E -0.076 ± 0.11; I -0.863 ± 0.28; H -0.276 ± 0.26; F -0.184 ± 0.19; W -0.156 ± 0.1; M -0.008 ± 0.12
S31: C -0.194 ± 0.16; L -0.493 ± 0.098; Q -0.152 ± 0.15; Y -0.244 ± 0.21; R -0.017 ± 0.083; M -0.408 ± 0.15; K -0.286 ± 0.12; P -0.544 ± 0.21; V -0.122 ± 0.089; T -0.328 ± 0.13; A -0.048 ± 0.086; D -0.251 ± 0.14; F -0.313 ± 0.15; W 0.015 ± 0.093; E -0.123 ± 0.099; I -0.065 ± 0.15
